# Data from US20190177366.
# Columns and labels:
# Pep2-8-ctrl = system: T1, Pep2-8-ctrl
# T1 sequence: TVATSAEEYLLWV
# Compound 26 = system: T2, Compound 26
# T2 sequence: SGCFIPWNLQRIGLLC
# Pep2-8 = system: T3, Pep2-8
# T3 sequence: TVFTSWEEYLDWV
# Compound 29 = system: T4, Compound 29
# T4 sequence: SGCFIPWNLQRIGLLC
# Compound 118 = system: T5, Compound 118
# T5 sequence: WNLVXIGLTR
substance,measurement,setting,value
PCSK9-R167A:R215A:R218A,FXIa cleavage of the P′ helix (immunoblot),Pep2-8-ctrl,The control peptide did not inhibit cleavage and gave similar results as the buffer control
same,FXIa cleavage of the P′ helix (immunoblot),Compound 26,"both groove binding peptides accelerated the cleavage reaction, leading to almost complete cleavage of the P′ helix"
same,FXIa cleavage of the P′ helix (immunoblot),Pep2-8,both reagents largely prevented cleavage of the P′ helix by FXIa
same,FXIa cleavage of the P′ helix (immunoblot),Compound 29,"both groove binding peptides accelerated the cleavage reaction, leading to almost complete cleavage of the P′ helix"
same,FXIa cleavage of the P′ helix (immunoblot),Compound 118,resulted in a higher degree of P′ helix cleavage by FXIa as compared to the peptide Compound 112
